Results published in publication PMC9123601 (Archives of biochemistry and biophysics, 2015).
Like-named read-outs stand apart in the source and are kept apart here.

Columns and labels:
[1] = target: the molecule itself; assay: SEC
[2] = target: the molecule itself; assay: SEC; remark: listed apart in the source

B1: Human Prx2, native, reduced (thiol cysteines) (enzyme, UniProt P32119 1-198, looked up)
chain: MASGNARIGKPAPDFKATAVVDGAFKEVKLSDYKGKYVVLFFYPLDFTFVCPTEIIAFSNRAEDFRKLGCEVLGVSVDSQFTHLAWINTPRKEGGLGPLNIPLLADVTRRLSEDYGVLKTDEGIAYRGLFIIDGKGVLRQITVNDLPVGRSVDEALRLVQAFQYTDEHGEVCPAGWKPGSDTIKPNVDDSKEYFSKHN
modifications: cysteines reduced (thiol)
stoichiometry N [1]: 10

B2: Human Prx2, overoxidized (enzyme, UniProt P32119 1-198, looked up)
chain: MASGNARIGKPAPDFKATAVVDGAFKEVKLSDYKGKYVVLFFYPLDFTFVCPTEIIAFSNRAEDFRKLGCEVLGVSVDSQFTHLAWINTPRKEGGLGPLNIPLLADVTRRLSEDYGVLKTDEGIAYRGLFIIDGKGVLRQITVNDLPVGRSVDEALRLVQAFQYTDEHGEVCPAGWKPGSDTIKPNVDDSKEYFSKHN
modifications: overoxidized (so in the source)
stoichiometry N [2]: 10
